The data set addresses beta-actin (monomeric, G-actin) (human, UniProt P60709 2-375). The data set is described as follows: fluorescence turn-on of BHQ1 probe; apparent; 10 mM Mg2+, BHQ1 probe; 10 mM Tris-HCl pH 7.6, 100 mM KCl, 10 mM MgCl2 (Kd assays), room temperature; RNA 3 uM with actin 3 uM preincubated 30 min at 25 C, then probe 1 uM (final) in 2.

Drawing on PMC8682759, this text covers Kd for four molecules.

B1: AcP-TRap4 (structured_RNA)
RNA: GGAUCCAAGCUUGUUUGGCCCAAUUCCUCGUCUUCAGACUGGCCUAGAUAAAUUCGGAGCUUGUUCACAACCUCUACUUCCUGCUUUCGACGGAGAAUUC
In the case of B1, the Kd worked out at 200 nM.

B2: AcP-TRap1 (structured_RNA)
RNA: GGAUCCAAGCUUGUUUGGCUCCAACCGUCCCCGCGUAUAUGGCCUAGAUAAAUUCGGAGCUUUUUGCCCAUCCUCAUAUAUUGCUUUCGACGGAGAAUUC
Take B2: the Kd was found to be 1500 nM.

B3: AcP-TRap3 (structured_RNA)
RNA: GGAUCCAAGCUUGUUUGGCCCAAUAACGUCGAUUGAUUGUGGCCUAGAUAAAUUCGGAGCUUUCAAUGAAUUACACAACAAUGCUUUCGACGGAGAAUUC
For B3, the Kd was determined as 1000 nM.

B4: AcP-TRap2 (structured_RNA)
RNA: GGAUCCAAGCUUGUUUGGCAUUCCACGUCGAUAAAAGAUUGGCCUAGAUAAAUUCGGAGCUUAAAAUUCCCUCCUAUCUUUUGCUUUCGACGGAGAAUUC
As to B4, the Kd came to 600 nM.
